Experimental data reported in patent US20110256180A1 (CHILDREN S HOSPITAL AND RESEARCH CENTER AT OAKLAND, published 2011).
Read-outs that look alike come from different tables or passages of the source.

Experiments:
[1] = biological target: fHbp ID 1 on live bacteria of N. meningitidis group B strain H44/76 (Neisseria meningitidis) (UniProt E6MV22); test: cell-based or functional assay
[2] = biological target: fHbp ID 22, wild-type (variant group 2, modular group III) (Neisseria meningitidis); test: ELISA
[3] = biological target: fHbp ID 77, wild-type (strain 8047, variant group 2, modular group VI) (Neisseria meningitidis); test: ELISA
[4] = biological target: T1, human complement factor H (human, UniProt P08603 19-1231); test: ELISA
T1 construct: also called human fH; fH
T1 sequence (P08603 19-1231 limits assumed): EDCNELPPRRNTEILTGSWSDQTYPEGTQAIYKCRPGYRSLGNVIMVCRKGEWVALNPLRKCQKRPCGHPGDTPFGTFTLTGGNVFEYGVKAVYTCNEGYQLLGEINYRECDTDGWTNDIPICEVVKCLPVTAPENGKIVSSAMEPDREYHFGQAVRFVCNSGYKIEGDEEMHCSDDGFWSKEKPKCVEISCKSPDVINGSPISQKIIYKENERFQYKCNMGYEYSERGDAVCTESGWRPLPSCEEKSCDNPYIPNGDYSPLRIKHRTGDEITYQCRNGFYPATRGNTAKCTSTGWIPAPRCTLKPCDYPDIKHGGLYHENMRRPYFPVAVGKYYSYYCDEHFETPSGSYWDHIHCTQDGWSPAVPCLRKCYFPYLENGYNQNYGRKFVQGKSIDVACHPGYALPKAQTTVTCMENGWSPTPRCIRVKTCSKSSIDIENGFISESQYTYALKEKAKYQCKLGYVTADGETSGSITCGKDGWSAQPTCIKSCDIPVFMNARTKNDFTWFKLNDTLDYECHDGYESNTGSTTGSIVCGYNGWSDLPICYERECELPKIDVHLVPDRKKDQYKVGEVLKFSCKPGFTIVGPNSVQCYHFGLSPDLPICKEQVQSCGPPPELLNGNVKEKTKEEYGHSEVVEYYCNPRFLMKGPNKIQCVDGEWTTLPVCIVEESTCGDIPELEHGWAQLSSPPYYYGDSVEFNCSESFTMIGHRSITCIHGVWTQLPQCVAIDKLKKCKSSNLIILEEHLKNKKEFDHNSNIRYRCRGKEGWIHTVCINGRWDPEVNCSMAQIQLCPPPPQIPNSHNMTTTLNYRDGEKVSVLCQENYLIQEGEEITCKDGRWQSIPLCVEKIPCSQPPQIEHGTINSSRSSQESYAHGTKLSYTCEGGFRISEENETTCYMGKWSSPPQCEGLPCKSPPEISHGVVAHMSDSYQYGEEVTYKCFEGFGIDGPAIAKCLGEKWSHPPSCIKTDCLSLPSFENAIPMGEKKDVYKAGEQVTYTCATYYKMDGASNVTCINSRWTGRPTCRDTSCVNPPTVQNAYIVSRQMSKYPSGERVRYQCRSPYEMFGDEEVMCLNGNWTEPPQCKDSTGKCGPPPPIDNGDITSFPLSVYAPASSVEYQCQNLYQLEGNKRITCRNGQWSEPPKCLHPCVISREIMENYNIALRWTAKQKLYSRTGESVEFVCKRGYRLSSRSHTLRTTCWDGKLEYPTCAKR

[5] = biological target: T1, human complement factor H; test: ELISA, vs respective wildtype fHbp
[6] = biological target: T1, human complement factor H; test: ELISA, fHbp on plate
[7] = biological target: human complement factor H (human) (UniProt P08603); test: ELISA, vs respective wildtype fHbp
Chain of human complement factor H (human) (P08603 19-1231 limits assumed): as above

[8] = biological target: T2, mouse factor H (native fH of wild-type mice) (mouse, UniProt P06909 19-1234); test: ELISA, fHbp on plate, mouse serum
T2 construct: also called mouse fH
T2 sequence (P06909 19-1234): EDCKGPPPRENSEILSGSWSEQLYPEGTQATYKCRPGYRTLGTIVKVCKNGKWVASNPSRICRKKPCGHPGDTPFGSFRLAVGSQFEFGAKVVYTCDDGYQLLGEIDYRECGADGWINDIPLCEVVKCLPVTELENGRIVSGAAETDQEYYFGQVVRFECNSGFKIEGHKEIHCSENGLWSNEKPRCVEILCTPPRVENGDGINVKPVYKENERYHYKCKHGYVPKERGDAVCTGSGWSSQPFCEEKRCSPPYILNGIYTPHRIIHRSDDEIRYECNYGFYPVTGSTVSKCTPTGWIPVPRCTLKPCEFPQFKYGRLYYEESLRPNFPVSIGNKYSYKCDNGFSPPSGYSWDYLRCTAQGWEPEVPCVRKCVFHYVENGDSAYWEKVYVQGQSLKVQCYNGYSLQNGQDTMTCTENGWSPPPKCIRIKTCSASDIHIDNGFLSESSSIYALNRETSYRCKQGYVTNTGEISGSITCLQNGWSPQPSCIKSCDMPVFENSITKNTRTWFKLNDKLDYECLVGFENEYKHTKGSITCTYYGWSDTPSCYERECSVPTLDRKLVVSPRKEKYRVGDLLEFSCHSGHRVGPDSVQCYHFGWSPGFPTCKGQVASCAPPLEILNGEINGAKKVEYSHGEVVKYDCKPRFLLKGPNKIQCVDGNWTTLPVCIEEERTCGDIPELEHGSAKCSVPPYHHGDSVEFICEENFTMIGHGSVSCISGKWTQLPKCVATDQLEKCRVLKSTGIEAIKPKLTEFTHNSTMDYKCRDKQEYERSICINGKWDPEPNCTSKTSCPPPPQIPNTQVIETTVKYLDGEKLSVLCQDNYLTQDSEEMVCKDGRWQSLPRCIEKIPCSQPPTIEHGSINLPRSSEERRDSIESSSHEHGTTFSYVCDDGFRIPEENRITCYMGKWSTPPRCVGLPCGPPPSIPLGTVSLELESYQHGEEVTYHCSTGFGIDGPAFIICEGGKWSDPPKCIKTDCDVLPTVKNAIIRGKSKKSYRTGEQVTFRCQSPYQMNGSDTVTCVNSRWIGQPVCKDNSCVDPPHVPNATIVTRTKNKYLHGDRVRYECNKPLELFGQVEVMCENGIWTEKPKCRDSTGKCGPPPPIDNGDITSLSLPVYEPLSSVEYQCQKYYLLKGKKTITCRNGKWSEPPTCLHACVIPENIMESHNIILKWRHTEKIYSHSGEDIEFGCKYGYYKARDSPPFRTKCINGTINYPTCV

[9] = biological target: T1, human complement factor H; test: ELISA, vs respective wildtype fHbp; remark: listed apart in the source

human IgG1 mouse chimeric anti-fHbp mAb JAR 3 (from UniProt P01857 1-330; P01834 1-107) (antibody)
Bactericidal Activity (BC50%), fH-repleted complement, mean [1]: 15.2 µg/mL

human IgG1 mouse chimeric anti-fHbp mAb502 (from UniProt P01857 1-330; P01834 1-107) (antibody)
Bactericidal Activity (BC50%), fH-depleted complement, mean [1]: 1.25 µg/mL | Bactericidal Activity (BC50%), fH-repleted complement, mean [1]: > 100 µg/mL

human IgG1 mouse chimeric anti-fHbp mAb JAR 5 (from UniProt P01857 1-330; P01834 1-107) (antibody)
Bactericidal Activity (BC50%), fH-depleted complement, mean [1]: 1.25 µg/mL | Bactericidal Activity (BC50%), fH-repleted complement, mean [1]: 23.5 µg/mL

anti-fHbp monoclonal antibody JAR 4 (murine)
percent less binding than to variant 1 fHbp (ID 1) [2]: 30% | percent less binding than to variant 1 fHbp (ID 1) [3]: 30%

B1: fHbp ID 28 K199A mutant (other)
chain: CSSGGGGSGGGGVAADIGTGLADALTAPLDHKDKGLKSLTLEDSIPQNGTLTLSAQGAEKTFKAGDKDNSLNTGKLKNDKISRFDFVQKIEVDGQTITLASGEFQIYKQNHSAVVALQIEKINNPDKTDSLINQRSFLVSGLGGEHTAFNQLPGGKAEYHGKAFSSDDPNGRLHYSIDFTKKQGYGRIEHLKTLEQNVELAAAELAADEKSHAVILGDTRYGSEEKGTYHLALFGDRAQEIAGSATVKIGEKVHEIGIAGKQ
binding result [4]: binds

B2: fHbp ID 77, wild-type (strain 8047, variant group 2, modular group VI) (other)
chain: CSSGGGGVAADIGARLADALTAPLDHKDKSLQSLTLDQSVRKNEKLKLAAQGAEKTYGNGDSLNTGKLKNDKVSRFDFIRQIEVDGQLITLESGEFQIYKQDHSAVVALQIEKINNPDKIDSLINQRSFLVSGLGGEHTAFNQLPDGKAEYHGKAFSSDDAGGKLTYTIDFAAKQGHGKIEHLKTPEQNVELAAAELKADEKSHAVILGDTRYGSEEKGTYHLALFGDRAQEIAGSATVKIGEKVHEIGIAGKQ
notes: Recombinant; also called ID 77 (VI); wildtype fHbp ID 77
Fold-Decrease in fH binding [5]: 0 fold

B3: fHbp ID 77 R41S/D121A double mutant (other)
chain: CSSGGGGVAADIGARLADALTAPLDHKDKSLQSLTLDQSVSKNEKLKLAAQGAEKTYGNGDSLNTGKLKNDKVSRFDFIRQIEVDGQLITLESGEFQIYKQDHSAVVALQIEKINNPDKIASLINQRSFLVSGLGGEHTAFNQLPDGKAEYHGKAFSSDDAGGKLTYTIDFAAKQGHGKIEHLKTPEQNVELAAAELKADEKSHAVILGDTRYGSEEKGTYHLALFGDRAQEIAGSATVKIGEKVHEIGIAGKQ
fold less binding to fH than wildtype fHbp ID 77 [6]: ~10 fold | Fold-Decrease in fH binding [5]: > 10 fold

B4: fHbp ID 77 R41S/K113A/D121A triple mutant (other)
chain: CSSGGGGVAADIGARLADALTAPLDHKDKSLQSLTLDQSVSKNEKLKLAAQGAEKTYGNGDSLNTGKLKNDKVSRFDFIRQIEVDGQLITLESGEFQIYKQDHSAVVALQIEAINNPDKIASLINQRSFLVSGLGGEHTAFNQLPDGKAEYHGKAFSSDDAGGKLTYTIDFAAKQGHGKIEHLKTPEQNVELAAAELKADEKSHAVILGDTRYGSEEKGTYHLALFGDRAQEIAGSATVKIGEKVHEIGIAGKQ
binding result [6]: no binding | Fold-Decrease in fH binding [5]: > 50 fold

B5: fHbp ID 77 R41S/K119A double mutant (other)
chain: CSSGGGGVAADIGARLADALTAPLDHKDKSLQSLTLDQSVSKNEKLKLAAQGAEKTYGNGDSLNTGKLKNDKVSRFDFIRQIEVDGQLITLESGEFQIYKQDHSAVVALQIEKINNPDAIDSLINQRSFLVSGLGGEHTAFNQLPDGKAEYHGKAFSSDDAGGKLTYTIDFAAKQGHGKIEHLKTPEQNVELAAAELKADEKSHAVILGDTRYGSEEKGTYHLALFGDRAQEIAGSATVKIGEKVHEIGIAGKQ
fold decrease in fH binding [6]: ~5 fold | Fold-Decrease in fH binding [5]: > 5 fold

B6: fHbp ID 77 R41S/K113A double mutant (other)
chain: CSSGGGGVAADIGARLADALTAPLDHKDKSLQSLTLDQSVSKNEKLKLAAQGAEKTYGNGDSLNTGKLKNDKVSRFDFIRQIEVDGQLITLESGEFQIYKQDHSAVVALQIEAINNPDKIDSLINQRSFLVSGLGGEHTAFNQLPDGKAEYHGKAFSSDDAGGKLTYTIDFAAKQGHGKIEHLKTPEQNVELAAAELKADEKSHAVILGDTRYGSEEKGTYHLALFGDRAQEIAGSATVKIGEKVHEIGIAGKQ
fold less binding to fH than wildtype fHbp ID 77 [6]: ~10 fold | Fold-Decrease in fH binding [5]: > 10 fold

B7: fHbp ID 22 R80A mutant (protein)
chain: CSSGGGGVAADIGAGLADALTAPLDHKDKSLQSLTLDQSVRKNEKLKLAAQGAEKTYGNGDSLNTGKLKNDKVSRFDFIAQIEVDGQLITLESGEFQIYKQDHSAVVALQIEKINNPDKIDSLINQRSFLVSGLGGEHTAFNQLPSGKAEYHGKAFSSDDPNGRLHYSIDFTKKQGYGRIEHLKTPEQNVELASAELKADEKSHAVILGDTRYGGEEKGTYHLALFGDRAQEIAGSATVKIREKVHEIGIAGKQ
Fold-Decrease in fH binding [7]: > 50 fold

B8: fHbp ID 22 D211A mutant (protein)
chain: CSSGGGGVAADIGAGLADALTAPLDHKDKSLQSLTLDQSVRKNEKLKLAAQGAEKTYGNGDSLNTGKLKNDKVSRFDFIRQIEVDGQLITLESGEFQIYKQDHSAVVALQIEKINNPDKIDSLINQRSFLVSGLGGEHTAFNQLPSGKAEYHGKAFSSDDPNGRLHYSIDFTKKQGYGRIEHLKTPEQNVELASAELKADEKSHAVILGATRYGGEEKGTYHLALFGDRAQEIAGSATVKIREKVHEIGIAGKQ
Fold-Decrease in fH binding [7]: > 50 fold

B9: fHbp ID 22 E248A mutant (protein)
chain: CSSGGGGVAADIGAGLADALTAPLDHKDKSLQSLTLDQSVRKNEKLKLAAQGAEKTYGNGDSLNTGKLKNDKVSRFDFIRQIEVDGQLITLESGEFQIYKQDHSAVVALQIEKINNPDKIDSLINQRSFLVSGLGGEHTAFNQLPSGKAEYHGKAFSSDDPNGRLHYSIDFTKKQGYGRIEHLKTPEQNVELASAELKADEKSHAVILGDTRYGGEEKGTYHLALFGDRAQEIAGSATVKIREKVHAIGIAGKQ
Fold-Decrease in fH binding [7]: > 50 fold

B10: fHbp ID 22 E218A mutant (protein)
chain: CSSGGGGVAADIGAGLADALTAPLDHKDKSLQSLTLDQSVRKNEKLKLAAQGAEKTYGNGDSLNTGKLKNDKVSRFDFIRQIEVDGQLITLESGEFQIYKQDHSAVVALQIEKINNPDKIDSLINQRSFLVSGLGGEHTAFNQLPSGKAEYHGKAFSSDDPNGRLHYSIDFTKKQGYGRIEHLKTPEQNVELASAELKADEKSHAVILGDTRYGGEAKGTYHLALFGDRAQEIAGSATVKIREKVHEIGIAGKQ
Fold-Decrease in fH binding [7]: > 50 fold

B11: fHbp ID 22, wild-type (variant group 2, modular group III) (other)
chain: CSSGGGGVAADIGAGLADALTAPLDHKDKSLQSLTLDQSVRKNEKLKLAAQGAEKTYGNGDSLNTGKLKNDKVSRFDFIRQIEVDGQLITLESGEFQIYKQDHSAVVALQIEKINNPDKIDSLINQRSFLVSGLGGEHTAFNQLPSGKAEYHGKAFSSDDPNGRLHYSIDFTKKQGYGRIEHLKTPEQNVELASAELKADEKSHAVILGDTRYGGEEKGTYHLALFGDRAQEIAGSATVKIREKVHEIGIAGKQ
notes: Recombinant; also called ID 22 (III); WT ID 22
Fold-Decrease in fH binding [5]: 0 fold

B12: fHbp ID 22 T220A/H222A double mutant (protein)
chain: CSSGGGGVAADIGAGLADALTAPLDHKDKSLQSLTLDQSVRKNEKLKLAAQGAEKTYGNGDSLNTGKLKNDKVSRFDFIRQIEVDGQLITLESGEFQIYKQDHSAVVALQIEKINNPDKIDSLINQRSFLVSGLGGEHTAFNQLPSGKAEYHGKAFSSDDPNGRLHYSIDFTKKQGYGRIEHLKTPEQNVELASAELKADEKSHAVILGDTRYGGEEKGAYALALFGDRAQEIAGSATVKIREKVHEIGIAGKQ
Fold-Decrease in fH binding [7]: > 50 fold

B13: fHbp ID 22 G236I mutant (protein)
chain: CSSGGGGVAADIGAGLADALTAPLDHKDKSLQSLTLDQSVRKNEKLKLAAQGAEKTYGNGDSLNTGKLKNDKVSRFDFIRQIEVDGQLITLESGEFQIYKQDHSAVVALQIEKINNPDKIDSLINQRSFLVSGLGGEHTAFNQLPSGKAEYHGKAFSSDDPNGRLHYSIDFTKKQGYGRIEHLKTPEQNVELASAELKADEKSHAVILGDTRYGGEEKGTYHLALFGDRAQEIAISATVKIREKVHEIGIAGKQ
Fold-Decrease in fH binding [7]: > 50 fold

B14: fHbp ID 1, wild-type recombinant factor H binding protein (strain MC58, variant 1, modular group I) (other)
chain: CSSGGGGVAADIGAGLADALTAPLDHKDKGLQSLTLDQSVRKNEKLKLAAQGAEKTYGNGDSLNTGKLKNDKVSRFDFIRQIEVDGQLITLESGEFQVYKQSHSALTAFQTEQIQDSEHSGKMVAKRQFRIGDIAGEHTSFDKLPEGGRATYRGTAFGSDDAGGKLTYTIDFAAKQGNGKIEHLKSPELNVDLAAADIKPDGKRHAVISGSVLYNQAEKGSYSLGIFGGKAQEVAGSAEVKTVNGIRHIGLAAKQ
notes: also called WT fHbp ID 1; Pep1
binding result [8]: no binding (tested: 1:100 dilution of serum)

B15: fHbp ID 15, wild-type (natural chimera, modular group IV) (other)
chain: CSSGGGGSGGGGVAADIGAGLADALTAPLDHKDKGLKSLTLEDSISQNGTLTLSAQGAERTFKAGDKDNSLNTGKLKNDKISRFDFIRQIEVDGQLITLESGEFQVYKQSHSALTALQTEQVQDSEHSGKMVAKRQFRIGDIVGEHTSFGKLPKDVMATYRGTAFGSDDAGGKLTYTIDFAAKQGHGKIEHLKSPELNVDLAAADIKPDEKHHAVISGSVLYNQAEKGSYSLGIFGGQAQEVAGSAEVETANGIRHIGLAAKQ
notes: Recombinant; also called Pep 15 WT; peptide 15
Fold-Decrease in fH binding [5]: 0 fold | Fold-Decrease in fH binding [9]: 0 fold

B16: fHbp ID 15 S41P mutant (other)
chain: CSSGGGGSGGGGVAADIGAGLADALTAPLDHKDKGLKSLTLEDSIPQNGTLTLSAQGAERTFKAGDKDNSLNTGKLKNDKISRFDFIRQIEVDGQLITLESGEFQVYKQSHSALTALQTEQVQDSEHSGKMVAKRQFRIGDIVGEHTSFGKLPKDVMATYRGTAFGSDDAGGKLTYTIDFAAKQGHGKIEHLKSPELNVDLAAADIKPDEKHHAVISGSVLYNQAEKGSYSLGIFGGQAQEVAGSAEVETANGIRHIGLAAKQ
notes: also called Pep 15 S41P
binding result [6]: no binding | Fold-Decrease in fH binding [5]: > 50 fold
